Data published in patent US7314716B2, “Gustducin γ subunit materials and methods” (Mount Sinai School of Medicine, priority 1999, dated 2008).
Each block holds one molecule with its values, some of them ahead of it.

Columns and labels:
gustducin α subunit = target: T1, gustducin α subunit (Rattus norvegicus, UniProt P29348); test: Trypsin protection assay of G protein α and γ subunit interaction; type: binding; settings: in vitro translated γ and α subunits mixed 3:1, without β subunit
T1 construct: made in house; host or cells: cell-free in vitro transcription/translation (Promega TNT system)
T1 sequence (P29348 2-354 limits assumed): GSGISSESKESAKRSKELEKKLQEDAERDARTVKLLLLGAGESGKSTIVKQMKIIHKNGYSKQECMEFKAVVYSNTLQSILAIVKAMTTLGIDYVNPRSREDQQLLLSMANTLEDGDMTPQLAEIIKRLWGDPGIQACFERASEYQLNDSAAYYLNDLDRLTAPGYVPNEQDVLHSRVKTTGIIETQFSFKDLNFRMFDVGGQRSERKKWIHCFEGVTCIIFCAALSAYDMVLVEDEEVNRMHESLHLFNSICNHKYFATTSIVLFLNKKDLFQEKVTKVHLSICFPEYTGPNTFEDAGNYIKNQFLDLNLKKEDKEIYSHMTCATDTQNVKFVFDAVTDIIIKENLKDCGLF
Excerpt: The interaction was confirmed using a trypsin protection assay that detects the direct interaction of G protein α and γ subunits. The assay is based on the fact that γ subunits, in the absence of β subunits, can interact directly with α subunits, and that this interaction apparently dictates which βγ dimer associates with which α subunit. See Rahmatullah & Robishaw, J. Biol. Chem., 269: 3574–3580 (1994).
To monitor G protein α and γ subunit interactions, gustducin γ and α subunit DNAs were transcribed and translated in vitro using the Promega TNT system, mixed in a 3:1 ratio, and incubated for 15 minutes at 30° C. in buffer G [15 mM Na-HEPES pH 8.0, 250 mM NaCl, 0.6 mM EDTA, 0.6 mM DTT, 5 mM MgCl2, 0.1 mM GDP and 0.3% polyoxyethylene 10-lauryl ether (LPX)]. The assay was initiated by adding Tosyl-L-phenylalanine chloromethyl ketone (TPCK) treated-trypsin (0.5 μg), incubated for 1 hour at 30° C., and terminated with 3 μg soybean trypsin inhibitor (SBTI) (15 min, at 30° C.). The samples were analyzed on 12% SDS-PAGE, gels were fixed, enhanced with En^3Hance (NEN), dried and exposed to X-ray film.
Other Gγ subunits were also tested in the assay.

β1 subunit = target: T2, β1 subunit (Homo sapiens, UniProt P62873); test: Trypsin assay of βγ dimer formation; type: binding; settings: cotranslated in vitro with β1 subunit
T2 construct: made in house; host or cells: cell-free in vitro transcription/translation
T2 sequence (P62873 whole entry): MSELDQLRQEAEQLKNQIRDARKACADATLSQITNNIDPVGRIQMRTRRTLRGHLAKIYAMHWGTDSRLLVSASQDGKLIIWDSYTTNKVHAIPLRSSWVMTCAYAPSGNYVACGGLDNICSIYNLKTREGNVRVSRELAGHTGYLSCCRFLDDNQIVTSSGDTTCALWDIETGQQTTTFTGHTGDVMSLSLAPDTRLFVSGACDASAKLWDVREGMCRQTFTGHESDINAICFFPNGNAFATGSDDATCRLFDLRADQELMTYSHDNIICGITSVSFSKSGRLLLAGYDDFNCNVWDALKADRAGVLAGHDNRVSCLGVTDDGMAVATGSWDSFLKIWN
T2 sequence (Q9P2W3 whole entry partner): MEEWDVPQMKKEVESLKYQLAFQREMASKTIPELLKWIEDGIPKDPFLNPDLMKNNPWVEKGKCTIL
Procedure: To determine which β and gustducin γ subunit combinations were capable of forming dimers another trypsin assay was utilized. β monomers are cleaved at numerous sites by trypsin, whereas βγ dimers are cleaved at a single site, resulting in the appearance of a 26-kDa fragment of the β subunit. See Schmidt et al., J. Biol. Chem., 267: 13807–13810 (1992).
Plasmid DNAs (0.5 μg) encoding β1 subunit was transcribed and translated in vitro, in the presence or absence of plasmid DNA (0.5 μg) coding for the gustducin γ subunit. Aliquots (10 μl) of the cotranslated βγ mix or β subunit alone were digested by TPCK-treated trypsin (1 μg) in a final volume of 20 μl (with 50 mM Na-HEPES pH 8.0). After incubation for 1 hour at 30° C., the digestions were stopped by addition of 6 μg SBTI as described above. Protected fragments of β subunits were analyzed on 15% SDS-PAGE. Detection was as described above.
In the assay, β1 formed dimers with gustducin γ subunit that were protected from trypsin digestion.

protection of gustducin α subunit from tryptic digestion (gustducin α subunit): unable to protect
B1: Gγ5: G protein γ5 subunit (protein)
chain: SGSSSVAAMKKVVQQLRLEAGLNRVKVSQAAADLKQFCLQNAQHDPLLTGVSSSTNPFRPQKVC

dimer formation with β1, protected from trypsin digestion (β1 subunit): formed dimers
B2: Gustducin γ subunit: γ subunit of the taste cell G protein gustducin, 67 amino acids, designated Gγ13 (protein, listed as Mus musculus)
chain: MEEWDVPQMKKEVESLKYQLAFKREMSSKTIPELLKWIEDGIPKDPFLNPDLMKNNPWVEKAKCTIL
modifications: ends and bridges not checked
notes: γ subunit of the taste cell G protein gustducin, 67 amino acids, designated Gγ13
protection of gustducin α subunit from tryptic digestion (gustducin α subunit): protected gustducin α subunit from tryptic digestion to a significant extent

protection of gustducin α subunit from tryptic digestion (gustducin α subunit): unable to protect
B3: cone γ8 subunit: the cone transducin α subunit partner (protein)
chain: MAQDLSEKDLLKMEVEQLKKEVKNTRIPISKAGKEIKEYVEAQAGNDPFLKGIPEDKNPFKEKGGCLIS
modifications: ends and bridges not checked
notes: the cone transducin α subunit partner

B4: Gγ1: G protein γ subunit which interacts with the rod transducin α subunit (protein)
chain: PVINIEDLTEKDKLKMEVDQLKKEVTLERMLVSKCCEEFRDYVEERSGEDPLVKGIPEDKNPFKELKGGC
protection of gustducin α subunit from tryptic digestion (gustducin α subunit): appeared to interact with gustducin α subunit, albeit to a lesser extent
